# Reference: US20250083113A1, “Apparatus for Improving Hydration and/or Reducing Particle Size of a Product and a Method of Use Thereof” (St Andrews Pharmaceutical Technology Limited, priority 2021, published 2025)
# Assay: Particle size of reconstituted freeze dried Factor XI by dynamic light scattering
# Assay type: physicochemical
# Conditions: sample exposed to a pulsed electromagnetic field compared to the control
# From the text: Experiment 1 was repeated but with Hemoleven (Factor XI) in place of the Factor VIII.
substance,measurement,value
"Factor XI: Hemoleven (Factor XI), blood clotting factor",% volume of larger particles,significant reduction
